Results from patent US20240270821A1, “GIP/GLP1/GCG TRI-RECEPTOR AGONISTS AND USES THEREOF” (priority 2023, published 2024).

Assays:
Assay in all cases: cell-based or functional assay
[1] = target: T1, human GIP receptor (human) (UniProt P48546)
T1 sequence (looked up): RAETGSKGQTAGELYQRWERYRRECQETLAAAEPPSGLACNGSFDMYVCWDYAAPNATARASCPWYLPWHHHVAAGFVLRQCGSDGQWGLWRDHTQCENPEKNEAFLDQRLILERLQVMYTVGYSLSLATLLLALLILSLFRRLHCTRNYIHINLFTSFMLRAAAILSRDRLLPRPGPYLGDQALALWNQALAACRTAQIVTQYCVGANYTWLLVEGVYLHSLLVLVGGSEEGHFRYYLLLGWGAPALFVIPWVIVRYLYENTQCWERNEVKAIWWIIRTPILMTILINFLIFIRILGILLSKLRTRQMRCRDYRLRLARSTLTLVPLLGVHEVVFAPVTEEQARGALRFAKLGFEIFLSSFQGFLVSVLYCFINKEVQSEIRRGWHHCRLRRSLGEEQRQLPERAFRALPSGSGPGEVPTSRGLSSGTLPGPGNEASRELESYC

hGLP-1R = hGLP-1R (Homo sapiens, UniProt P43220)
hGLP-1R, sequence (P43220 24-463): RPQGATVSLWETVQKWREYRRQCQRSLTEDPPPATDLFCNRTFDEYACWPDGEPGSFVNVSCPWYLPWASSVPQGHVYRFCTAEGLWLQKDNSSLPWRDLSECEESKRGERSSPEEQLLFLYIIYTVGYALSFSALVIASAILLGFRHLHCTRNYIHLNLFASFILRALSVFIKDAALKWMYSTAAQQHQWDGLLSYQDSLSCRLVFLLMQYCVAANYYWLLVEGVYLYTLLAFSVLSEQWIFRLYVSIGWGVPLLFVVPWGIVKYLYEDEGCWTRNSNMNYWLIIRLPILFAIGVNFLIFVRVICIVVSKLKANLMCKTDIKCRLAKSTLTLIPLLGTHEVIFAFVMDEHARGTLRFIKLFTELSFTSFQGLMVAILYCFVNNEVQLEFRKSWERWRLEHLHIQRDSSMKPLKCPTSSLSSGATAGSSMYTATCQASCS

[2] = target: human glucagon receptor (human) (UniProt P47871)
human glucagon receptor (human), sequence (P47871 26-477): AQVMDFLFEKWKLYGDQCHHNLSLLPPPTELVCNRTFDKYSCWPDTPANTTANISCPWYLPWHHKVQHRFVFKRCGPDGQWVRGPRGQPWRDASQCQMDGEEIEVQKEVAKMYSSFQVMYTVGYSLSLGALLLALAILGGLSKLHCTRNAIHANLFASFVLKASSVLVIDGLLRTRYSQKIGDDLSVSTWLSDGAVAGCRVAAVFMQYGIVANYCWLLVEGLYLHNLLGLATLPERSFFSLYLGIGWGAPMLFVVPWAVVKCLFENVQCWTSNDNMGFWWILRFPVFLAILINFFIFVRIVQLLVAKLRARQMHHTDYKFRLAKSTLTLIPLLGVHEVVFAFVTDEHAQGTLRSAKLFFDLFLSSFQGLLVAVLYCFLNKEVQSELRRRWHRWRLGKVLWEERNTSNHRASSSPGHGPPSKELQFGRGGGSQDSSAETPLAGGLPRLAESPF

B1: Example 1033 (peptide)
chain: YXQGTFTSDXSQXLDXKAQXAFIEYLIAGGPSSGAPPPSGSEE
modifications: Aib, 4Pal, Me4Pal, Orn, alpha-methyl-Leu, lipidated Lys, amide; synthetic construct; SITE 2: note = 2-Aminoisobutyric Acid; SITE 10: note = 3-(4-Pyridyl)-L-alanine; SITE 13: note = alpha-methyl-leucine; SITE 16: note = L-ornithine; SITE 17: note = Lysine is chemically modified through conjugation of the epsilon-amino group of the Lysine side chain with (Glu)2-(g)
cAMP Rel EC50, nM (1% HSA) [1]: 23.4 nM
cAMP Rel EC50, nM (1% HSA) (hGLP-1R): 221 nM
cAMP Rel EC50, nM (1% HSA) [2]: 2170 nM

B2: Example 1034 (peptide)
chain: YXQGTFTSDXSQXLDXKAQXAFIEYLIAGGPSSGAPPPSGSEE
modifications: non-natural residues; lipidated Lys; C-terminal amide; synthetic construct; SITE 2: note = 2-Aminoisobutyric Acid; SITE 10: note = 3-(4-Pyridyl)-L-alanine; SITE 13: note = alpha-methyl-leucine; SITE 16: note = L-ornithine; SITE 17: note = Lysine is chemically modified through conjugation of the epsilon-amino group of the Lysine side chain with D-Glutami
cAMP Rel EC50, nM (1% HSA) [1]: 23 nM
cAMP Rel EC50, nM (1% HSA) (hGLP-1R): 317 nM
cAMP Rel EC50, nM (1% HSA) [2]: 1890 nM

B3: Example 1027 (peptide)
chain: YXQGTFTSDXSQXLDXKAQXAFIEXLIEGGPSSGEPPPSGSEE
modifications: Aib, 4Pal, αMeL, Orn, Me4Pal, αMeY; lipidated Lys; C-terminal amide; synthetic construct; SITE 2: note = 2-Aminoisobutyric Acid; SITE 10: note = 3-(4-Pyridyl)-L-alanine; SITE 13: note = alpha-methyl-leucine; SITE 16: note = L-ornithine; SITE 17: note = Lysine is chemically modified through conjugation of the epsilon-amino group of the Lysine side chain with (gamma-Gl)
Relative cAMP EC50 [1]: 0.208 nM
cAMP Rel EC50, nM (1% HSA) [1]: 58.1 nM
Relative cAMP EC50 (hGLP-1R): 1.23 nM
cAMP Rel EC50, nM (1% HSA) (hGLP-1R): 252 nM
Relative cAMP EC50 [2]: 4.99 nM
cAMP Rel EC50, nM (1% HSA) [2]: 1470 nM

B4: Example 1035 (peptide)
chain: YXQGTFTSDXSQXLDXKAQXAFIEYLIAGGPSSGAPPPSGSEE
modifications: non-natural residues; acylated Lys; C-terminal amide; synthetic construct; SITE 2: note = 2-Aminoisobutyric Acid; SITE 10: note = 3-(4-Pyridyl)-L-alanine; SITE 13: note = alpha-methyl-leucine; SITE 16: note = L-ornithine; SITE 17: note = Lysine is chemically modified through conjugation of the epsilon-amino group of the Lysine side chain with (gamma-Gl)
cAMP Rel EC50, nM (1% HSA) [1]: 16 nM
cAMP Rel EC50, nM (1% HSA) (hGLP-1R): 167 nM
cAMP Rel EC50, nM (1% HSA) [2]: 1380 nM

B5: Example 1028 (peptide)
chain: YXQGTFTSDXSQXLDXKAQXAFIEXLIEGGPSSGEPPPSGSEE
modifications: non-natural residues; lysine acylated with C18 diacid; C-terminal amide; synthetic construct; SITE 2: note = 2-Aminoisobutyric Acid; SITE 10: note = 3-(4-Pyridyl)-L-alanine; SITE 13: note = alpha-methyl-leucine; SITE 16: note = L-ornithine; SITE 17: note = Lysine is chemically modified through conjugation of the epsilon-amino group of the Lysine side chain with (gamma-Gl)
Relative cAMP EC50 [1]: 0.189 nM
cAMP Rel EC50, nM (1% HSA) [1]: 157 nM
Relative cAMP EC50 (hGLP-1R): 1.34 nM
cAMP Rel EC50, nM (1% HSA) (hGLP-1R): 986 nM
Relative cAMP EC50 [2]: 5.77 nM
cAMP Rel EC50, nM (1% HSA) [2]: 3910 nM

B6: Example 1030 (peptide)
chain: YXQGTFTSDXSQXLDKKAQXAFIEYLIAGGPSSGAPPPSGSEE
modifications: synthetic construct; SITE 2: note = 2-Aminoisobutyric Acid; SITE 10: note = 3-(4-Pyridyl)-L-alanine; SITE 13: note = alpha-methyl-leucine; SITE 17: note = Lysine is chemically modified through conjugation of the epsilon-amino group of the Lysine side chain with (Glu)-(gamma-Glu)-CO-(CH2)16-CO2H; SIT
Relative cAMP EC50 [1]: 0.122 nM
cAMP Rel EC50, nM (1% HSA) [1]: 21 nM
Relative cAMP EC50 (hGLP-1R): 1.72 nM
cAMP Rel EC50, nM (1% HSA) (hGLP-1R): 385 nM
Relative cAMP EC50 [2]: 9.42 nM
cAMP Rel EC50, nM (1% HSA) [2]: 1830 nM

B7: Example 1038 (peptide)
chain: YXQGTFTSDFSQXLDXKAQXAFIEYLLEAGPSSGAPPPSGSEEE
modifications: synthetic construct; SITE 2: note = 2-Aminoisobutyric Acid; SITE 13: note = alpha-methyl-leucine; SITE 16: note = L-ornithine; SITE 17: note = Lysine is chemically modified through conjugation of the epsilon-amino group of the Lysine side chain with (2-[2-(2-Amino-ethoxy)-ethoxy]-acetyl)-(gamma-Glu)
Relative cAMP EC50 [1]: 0.134 nM
cAMP Rel EC50, nM (1% HSA) [1]: 29.8 nM
Relative cAMP EC50 (hGLP-1R): 1.45 nM
cAMP Rel EC50, nM (1% HSA) (hGLP-1R): 349 nM
Relative cAMP EC50 [2]: 5.93 nM
cAMP Rel EC50, nM (1% HSA) [2]: 1300 nM

B8: Example 1039 (peptide)
chain: YXQGTFTSDFSQXLDXKAQXAFIEYLLEAGPSSGAPPPSGSEEE
modifications: not fully specified; synthetic construct; SITE 2: note = 2-Aminoisobutyric Acid; SITE 13: note = alpha-methyl-leucine; SITE 16: note = L-ornithine; SITE 17: note = Lysine is chemically modified through conjugation of the epsilon-amino group of the Lysine side chain with (gamma-Glu)2-CO-(CH2)16-CO2H; SITE 20: note = 2-Am
Relative cAMP EC50 [1]: 0.118 nM
cAMP Rel EC50, nM (1% HSA) [1]: 26.8 nM
Relative cAMP EC50 (hGLP-1R): 1.65 nM
cAMP Rel EC50, nM (1% HSA) (hGLP-1R): 413 nM
Relative cAMP EC50 [2]: 7.46 nM
cAMP Rel EC50, nM (1% HSA) [2]: 2020 nM

B9: Example 1007 (peptide)
chain: YXQGTFTSDXSQXLDXKAQXAFIEYLIAGGPSSGEPPPSGS
modifications: not fully specified; synthetic construct; SITE 2: note = 2-Aminoisobutyric Acid; SITE 10: note = 3-(4-Pyridyl)-L-alanine; SITE 13: note = alpha-methyl-leucine; SITE 16: note = L-ornithine; SITE 17: note = Lysine is chemically modified through conjugation of the epsilon-amino group of the Lysine side chain with (gamma-Gl)
Relative cAMP EC50 [1]: 0.116 nM
cAMP Rel EC50, nM (1% HSA) [1]: 12 nM
Relative cAMP EC50 (hGLP-1R): 0.668 nM
cAMP Rel EC50, nM (1% HSA) (hGLP-1R): 95.1 nM
Relative cAMP EC50 [2]: 5.34 nM
cAMP Rel EC50, nM (1% HSA) [2]: 636 nM

B10: Example 1016 (peptide)
chain: YXQGTFTSDXSQXLDXKAQXAFIEYLIEAGPSSGAPPPSGS
modifications: not fully specified; Aib, 4Pal, αMeL, Orn, Me4Pal, D-Ala; acylated Lys; C-terminal amide; synthetic construct; SITE 2: note = 2-Aminoisobutyric Acid; SITE 10: note = 3-(4-Pyridyl)-L-alanine; SITE 13: note = alpha-methyl-leucine; SITE 16: note = L-ornithine; SITE 17: note = Lysine is chemically modified through conjugation of the epsilon-amino group of the Lysine side chain with (2-[2-(2-
cAMP Rel EC50, nM (1% HSA) [1]: 30.6 nM
cAMP Rel EC50, nM (1% HSA) (hGLP-1R): 156 nM
cAMP Rel EC50, nM (1% HSA) [2]: 626 nM

B11: Example 1015 (peptide)
chain: YXQGTFTSDXSXXLDKKAQXAFIEXLIAGGPSSGAPPPEGS
modifications: non-natural residues (Aib, 4Pal, Orn, Me4Pal, αMeY); lipidated K; amide; synthetic construct; SITE 2: note = 2-Aminoisobutyric Acid; SITE 10: note = 3-(4-Pyridyl)-L-alanine; SITE 12: note = L-ornithine; SITE 13: note = alpha-methyl-leucine; SITE 17: note = Lysine is chemically modified through conjugation of the epsilon-amino group of the Lysine side chain with (gamma-Gl)
cAMP Rel EC50, nM (1% HSA) [1]: 9.08 nM
cAMP Rel EC50, nM (1% HSA) (hGLP-1R): 92.4 nM
cAMP Rel EC50, nM (1% HSA) [2]: 357 nM

B12: Example 1019 (peptide)
chain: YXQGTFTSDXSQXLDXKAQXAFIEYLIEAGPSSGEPPPSGS
modifications: not fully specified; non-natural residues, (γGlu)2-C18 diacid lysine acylation, C-terminal amide; synthetic construct; SITE 2: note = 2-Aminoisobutyric Acid; SITE 10: note = 3-(4-Pyridyl)-L-alanine; SITE 13: note = alpha-methyl-leucine; SITE 16: note = L-ornithine; SITE 17: note = Lysine is chemically modified through conjugation of the epsilon-amino group of the Lysine side chain with (gamma-Gl)
Relative cAMP EC50 [1]: 0.169 nM
cAMP Rel EC50, nM (1% HSA) [1]: 21.3 nM
Relative cAMP EC50 (hGLP-1R): 1.33 nM
cAMP Rel EC50, nM (1% HSA) (hGLP-1R): 161 nM
Relative cAMP EC50 [2]: 4.36 nM
cAMP Rel EC50, nM (1% HSA) [2]: 579 nM

B13: Example 1017 (peptide)
chain: YXQGTFTSDXSQXLDXKAQXAFIEYLIEAGPSSGAPPPSGS
modifications: not fully specified; Aib, 4Pal, αMeL, Orn, Me4Pal, D-Ala; acylated Lys; amide; synthetic construct; SITE 2: note = 2-Aminoisobutyric Acid; SITE 10: note = 3-(4-Pyridyl)-L-alanine; SITE 13: note = alpha-methyl-leucine; SITE 16: note = L-ornithine; SITE 17: note = Lysine is chemically modified through conjugation of the epsilon-amino group of the Lysine side chain with (gamma-Gl)
cAMP Rel EC50, nM (1% HSA) [1]: 28.3 nM
cAMP Rel EC50, nM (1% HSA) (hGLP-1R): 118 nM
cAMP Rel EC50, nM (1% HSA) [2]: 649 nM

B14: Example 1013 (peptide)
chain: YXQGTFTSDXSXXLDXKAQXAFIEXLIEGGPSSGAPPPSGS
modifications: Aib, 4Pal, Orn, αMeL, Me4Pal, αMeY, (γGlu)2-C18 diacid, amide; synthetic construct; SITE 2: note = 2-Aminoisobutyric Acid; SITE 10: note = 3-(4-Pyridyl)-L-alanine; SITE 12: note = L-ornithine; SITE 13: note = alpha-methyl-leucine; SITE 16: note = L-ornithine; SITE 17: note = Lysine is chemically modified through conjugation of the epsilon-amino group of the Lys
cAMP Rel EC50, nM (1% HSA) [1]: 22.6 nM
cAMP Rel EC50, nM (1% HSA) (hGLP-1R): 137 nM
cAMP Rel EC50, nM (1% HSA) [2]: 285 nM

B15: Example 1014 (peptide)
chain: YXQGTFTSDXSXXLDKKAQXAFIEXLIAGGPSSGEPPPSGS
modifications: Aib, 4Pal, Orn, αMeL, Me4Pal, αMeY; γGlu2-C18 diacid Lys; amide; synthetic construct; SITE 2: note = 2-Aminoisobutyric Acid; SITE 10: note = 3-(4-Pyridyl)-L-alanine; SITE 12: note = L-ornithine; SITE 13: note = alpha-methyl-leucine; SITE 17: note = Lysine is chemically modified through conjugation of the epsilon-amino group of the Lysine side chain with (gamma-Gl)
Relative cAMP EC50 [1]: 0.0412 nM
cAMP Rel EC50, nM (1% HSA) [1]: 5.62 nM
Relative cAMP EC50 (hGLP-1R): 0.718 nM
cAMP Rel EC50, nM (1% HSA) (hGLP-1R): 86.4 nM
Relative cAMP EC50 [2]: 3.62 nM
cAMP Rel EC50, nM (1% HSA) [2]: 277 nM

B16: Example 6 (peptide)
chain: YXQGTFTSDFSKXLDKKAQXAFIEYLLAGGPSSGEPPPSGG
modifications: Aib, αMeL; Lys acylated; C-terminal amide; synthetic construct; SITE 2: note = 2-Aminoisobutyric Acid; SITE 13: note = alpha-methyl-leucine; SITE 17: note = Lysine is chemically modified through conjugation of the epsilon-amino group of the Lysine side chain with (2-[2-(2-Amino-ethoxy)-ethoxy]-acetyl)-(gamma-Glu)-CO-(CH2) 18-CO2H; SITE 20: n
Relative cAMP EC50 [1]: 0.232 nM
cAMP Rel EC50 (in the presence of 1% HSA) [1]: 46.6 nM
Relative cAMP EC50 (hGLP-1R): 1.95 nM
cAMP Rel EC50 (in the presence of 1% HSA) (hGLP-1R): 446 nM
Relative cAMP EC50 [2]: 6.89 nM
cAMP Rel EC50 (in the presence of 1% HSA) [2]: 1380 nM
